In patent US9708383 (Novo Nordisk, dated 2017):
*1 amine or outer side, *2 acyl side, *3 side chain or, on linkers, in order; H or OH if unused. Where no end group is shown, it is not given here. Side-chain parts run from the residue outwards. [ ]: non-standard residue; d: D form. The star is where a group is joined. Decanoyl(10-(4-HOOC-PhO)) = O=C(O)c1ccc(OCCCCCCCCCC(=O)*)cc1; C18 diacid = O=C(O)CCCCCCCCCCCCCCCCC(=O)*; C16 diacid = O=C(O)CCCCCCCCCCCCCCC(=O)*; γGlu = O=C(O)[C@H](CCC(=O)[*:2])N[*:1]; Desaminohistidyl = O=C(CCc1c[nH]cn1)*; C12 diacid = O=C(O)CCCCCCCCCCC(=O)*; 13‑carboxytridecanoyl = C14 diacid; AEEA = NCCOCCOCC(=O)O; Aib = CC(C)(N)C(=O)O

B1: GLP-1 derivative of Example 147: [Imp7,Lys18,Glu22,Arg26,Lys27,Gln34]-GLP-1-(7-37)-peptide (peptide)
peptide: [Desaminohistidyl]AEGTFTSDVSK([AEEA-AEEA-γGlu-C16 diacid])YLEEQAARK([AEEA-AEEA-γGlu-C16 diacid])FIAWLVQGRG
B2: GLP-1 derivative of Example 138: [Aib8,Lys18,Glu22,Arg34]-GLP-1-(7-35)-peptide (peptide)
peptide: H[Aib]EGTFTSDVSK([AEEA-AEEA-γGlu-C16 diacid])YLEEQAAK([AEEA-AEEA-γGlu-C16 diacid])EFIAWLVRG
B3: GLP-1 derivative of Example 81: [Aib8,Lys18,His26,Lys30,Arg34]-GLP-1-(7-35)-peptide (peptide)
peptide: H[Aib]EGTFTSDVSK([AEEA-AEEA-γGlu-13‑carboxytridecanoyl])YLEGQAAHEFIK([AEEA-AEEA-γGlu-13‑carboxytridecanoyl])WLVRG
B4: GLP-1 derivative of Example 83: [Aib8,Lys18,Glu22,Arg26,Lys30,Arg34]-GLP-1-(7-35)-peptide (peptide)
peptide: H[Aib]EGTFTSDVSK([AEEA-AEEA-γGlu-13‑carboxytridecanoyl])YLEEQAAREFIK([AEEA-AEEA-γGlu-13‑carboxytridecanoyl])WLVRG
B5: GLP-1 derivative of Example 13: [Imp7,Lys18,Glu22,Val25,Arg26,Lys31,Gly34]-GLP-1-(7-34)-peptide (peptide)
peptide: [Desaminohistidyl]AEGTFTSDVSK([AEEA-AEEA-γGlu-C12 diacid])YLEEQAVREFIAK([AEEA-AEEA-γGlu-C12 diacid])LVG
B6: GLP-1 derivative of Example 140: [Aib8,Lys18,Glu22,Arg34]-GLP-1-(7-35)-peptide (peptide)
peptide: H[Aib]EGTFTSDVSK([AEEA-AEEA-γGlu-Decanoyl(10-(4-HOOC-PhO))])YLEEQAAK([AEEA-AEEA-γGlu-Decanoyl(10-(4-HOOC-PhO))])EFIAWLVRG
B7: GLP-1 derivative of Example 143: [Aib8,Lys18,Glu22,Gln34]-GLP-1-(7-37)-peptide (peptide)
peptide: H[Aib]EGTFTSDVSK([AEEA-AEEA-γGlu-C16 diacid])YLEEQAAK([AEEA-AEEA-γGlu-C16 diacid])EFIAWLVQGRG
B8: GLP-1 derivative of Example 5: [Aib8,Lys18,Glu22,Val25,Arg26,Lys31,Gly34]-GLP-1-(7-34)-peptide (peptide)
peptide: H[Aib]EGTFTSDVSK([AEEA-AEEA-γGlu-13‑carboxytridecanoyl])YLEEQAVREFIAK([AEEA-AEEA-γGlu-13‑carboxytridecanoyl])LVG
B9: GLP-1 derivative of Example 6: [Aib8,Lys18,Glu22,Val25,Arg26,Glu30,Lys31,Gly34]-GLP-1-(7-34)-peptide (peptide)
peptide: H[Aib]EGTFTSDVSK([AEEA-AEEA-γGlu-13‑carboxytridecanoyl])YLEEQAVREFIEK([AEEA-AEEA-γGlu-13‑carboxytridecanoyl])LVG
B10: GLP-1 derivative of Example 7: [Aib8,Lys18,Glu22,Val25,His26,Lys31,Gly34]-GLP-1-(7-34)-peptide (peptide)
peptide: H[Aib]EGTFTSDVSK([AEEA-AEEA-γGlu-13‑carboxytridecanoyl])YLEEQAVHEFIAK([AEEA-AEEA-γGlu-13‑carboxytridecanoyl])LVG
B11: GLP-1 derivative of Example 16: [Aib8,Lys18,Glu22,Arg26,Lys31,Gly34]-GLP-1-(7-34)-peptide (peptide)
peptide: H[Aib]EGTFTSDVSK([AEEA-AEEA-γGlu-13‑carboxytridecanoyl])YLEEQAAREFIAK([AEEA-AEEA-γGlu-13‑carboxytridecanoyl])LVG
B12: GLP-1 derivative of Example 17: [Aib8,Lys18,Glu22,Arg23,Val25,Arg26,Lys31,Gly34]-GLP-1-(7-34)-peptide (peptide)
peptide: H[Aib]EGTFTSDVSK([AEEA-AEEA-γGlu-13‑carboxytridecanoyl])YLEERAVREFIAK([AEEA-AEEA-γGlu-13‑carboxytridecanoyl])LVG
B13: GLP-1 derivative of Example 18: [Aib8,Lys18,Glu22,Val25,Arg26,His27,Lys31,Gly34]-GLP-1-(7-34)-peptide (peptide)
peptide: H[Aib]EGTFTSDVSK([AEEA-AEEA-γGlu-13‑carboxytridecanoyl])YLEEQAVRHFIAK([AEEA-AEEA-γGlu-13‑carboxytridecanoyl])LVG
B14: GLP-1 derivative of Example 24: [Aib8,Lys18,Glu22,Val25,Arg26,Lys27,His31,Gly34]-GLP-1-(7-34)-peptide (peptide)
peptide: H[Aib]EGTFTSDVSK([AEEA-AEEA-γGlu-C12 diacid])YLEEQAVRK([AEEA-AEEA-γGlu-C12 diacid])FIAHLVG
B15: GLP-1 derivative of Example 26: [Aib8,Lys18,Glu22,Val25,Arg26,Lys27,His31,Gly34]-GLP-1-(7-34)-peptide (peptide)
peptide: H[Aib]EGTFTSDVSK([AEEA-AEEA-γGlu-13‑carboxytridecanoyl])YLEEQAVRK([AEEA-AEEA-γGlu-13‑carboxytridecanoyl])FIAHLVG
B16: GLP-1 derivative of Example 27: [Aib8,Lys18,Glu22,Val25,His26,Lys31,Gly34]-GLP-1-(7-34)-peptide (peptide)
peptide: H[Aib]EGTFTSDVSK([AEEA-AEEA-γGlu-C12 diacid])YLEEQAVHEFIAK([AEEA-AEEA-γGlu-C12 diacid])LVG
B17: GLP-1 derivative of Example 8: [Aib8,Lys18,Glu22,Val25,Arg26,Lys31,Gly34]-GLP-1-(7-34)-peptide (peptide)
peptide: H[Aib]EGTFTSDVSK([AEEA-AEEA-γGlu-C12 diacid])YLEEQAVREFIAK([AEEA-AEEA-γGlu-C12 diacid])LVG
B18: GLP-1 derivative of Example 19: [Aib8,Lys18,Glu22,Val25,Arg26,Lys31,Gly34]-GLP-1-(7-34)-peptide (peptide)
peptide: H[Aib]EGTFTSDVSK([AEEA-AEEA-γGlu-Decanoyl(10-(4-HOOC-PhO))])YLEEQAVREFIAK([AEEA-AEEA-γGlu-Decanoyl(10-(4-HOOC-PhO))])LVG
B19: GLP-1 derivative of Example 20: [Aib8,Lys18,Glu22,Val25,Arg26,Lys31,Gly34]-GLP-1-(7-34)-peptide (peptide)
peptide: H[Aib]EGTFTSDVSK([AEEA-γGlu-13‑carboxytridecanoyl])YLEEQAVREFIAK([AEEA-γGlu-13‑carboxytridecanoyl])LVG
B20: GLP-1 derivative of Example 21: [Imp7,Aib8,Lys18,Glu22,Val25,Arg26,Lys31,Gly34]-GLP-1-(7-34)-peptide (peptide)
peptide: [Desaminohistidyl][Aib]EGTFTSDVSK([AEEA-AEEA-γGlu-13‑carboxytridecanoyl])YLEEQAVREFIAK([AEEA-AEEA-γGlu-13‑carboxytridecanoyl])LVG
B21: GLP-1 derivative of Example 22: [Imp7,Aib8,Lys18,Glu22,Val25,Arg26,Lys31,Gly34]-GLP-1-(7-34)-peptide (peptide)
peptide: [Desaminohistidyl][Aib]EGTFTSDVSK([AEEA-AEEA-γGlu-C12 diacid])YLEEQAVREFIAK([AEEA-AEEA-γGlu-C12 diacid])LVG
B22: GLP-1 derivative of Example 23: [Aib8,Lys18,Glu22,Gln34]-GLP-1-(7-37)-peptide (peptide)
peptide: H[Aib]EGTFTSDVSK([AEEA-AEEA-γGlu-C18 diacid])YLEEQAAK([AEEA-AEEA-γGlu-C18 diacid])EFIAWLVQGRG
B23: GLP-1 derivative of Example 31: [Imp7,Lys18,Glu22,Arg26,Lys27,His31,Gly34]-GLP-1-(7-34)-peptide (peptide)
peptide: [Desaminohistidyl]AEGTFTSDVSK([AEEA-AEEA-13‑carboxytridecanoyl])YLEEQAARK([AEEA-AEEA-13‑carboxytridecanoyl])FIAHLVG
B24: GLP-1 derivative of Example 32: [Imp7,Lys18,Glu22,Arg26,Lys27,His31,Gly34]-GLP-1-(7-34)-peptide (peptide)
peptide: [Desaminohistidyl]AEGTFTSDVSK([γGlu-AEEA-AEEA-13‑carboxytridecanoyl])YLEEQAARK([γGlu-AEEA-AEEA-13‑carboxytridecanoyl])FIAHLVG
B25: GLP-1 derivative of Example 33: [Imp7,Lys18,Glu22,Arg26,Lys27,His31,Gly34]-GLP-1-(7-34)-peptide (peptide)
peptide: [Desaminohistidyl]AEGTFTSDVSK([AEEA-AEEA-γGlu-Decanoyl(10-(4-HOOC-PhO))])YLEEQAARK([AEEA-AEEA-γGlu-Decanoyl(10-(4-HOOC-PhO))])FIAHLVG
B26: GLP-1 derivative of Example 36: [Aib8,Lys18,Glu22,Val25,Arg26,Lys31,Gly34]-GLP-1-(7-34)-peptide (peptide)
peptide: H[Aib]EGTFTSDVSK([γGlu-AEEA-AEEA-13‑carboxytridecanoyl])YLEEQAVREFIAK([γGlu-AEEA-AEEA-13‑carboxytridecanoyl])LVG
B27: GLP-1 derivative of Example 37: [Aib8,Lys18,Glu22,Val25,Arg26,Lys31]-GLP-1-(7-33)-peptide amide (peptide)
peptide: H[Aib]EGTFTSDVSK([AEEA-AEEA-γGlu-13‑carboxytridecanoyl])YLEEQAVREFIAK([AEEA-AEEA-γGlu-13‑carboxytridecanoyl])LV-NH2
notes: Second site printed without its number (N^ε-)
B28: GLP-1 derivative of Example 39: [Aib8,Lys18,Glu22,Gln34]-GLP-1-(7-37)-peptide (peptide)
peptide: H[Aib]EGTFTSDVSK([AEEA-AEEA-γGlu-C12 diacid])YLEEQAAK([AEEA-AEEA-γGlu-C12 diacid])EFIAWLVQGRG
B29: GLP-1 derivative of Example 63: [Aib8,Lys18,Glu22,Val25,Arg26,Leu27]-GLP-1-(7-34)-peptide (peptide)
peptide: H[Aib]EGTFTSDVSK([AEEA-AEEA-γGlu-13‑carboxytridecanoyl])YLEEQAVRLFIAWLVK([AEEA-AEEA-γGlu-13‑carboxytridecanoyl])
B30: GLP-1 derivative of Example 65: [Aib8,Lys18,Glu22,Gln34]-GLP-1-(7-37)-peptide (peptide)
peptide: H[Aib]EGTFTSDVSK([γGlu-AEEA-AEEA-13‑carboxytridecanoyl])YLEEQAAK([γGlu-AEEA-AEEA-13‑carboxytridecanoyl])EFIAWLVQGRG
B31: GLP-1 derivative of Example 69: [Aib8,Lys18,Glu22,Gln34]-GLP-1-(7-37)-peptide (peptide)
peptide: H[Aib]EGTFTSDVSK([AEEA-AEEA-AEEA-AEEA-γGlu-Decanoyl(10-(4-HOOC-PhO))])YLEEQAAK([AEEA-AEEA-AEEA-AEEA-γGlu-Decanoyl(10-(4-HOOC-PhO))])EFIAWLVQGRG

Each binder was assayed against T1, human GLP-1 receptor (human, UniProt P43220 24-463) (assay: SPA, 2.0% vs 0.005% HSA).
T1 construct: whole, on cells; Used as purified membranes of the transfected hamster cells, not whole cells; also called hGLP-1

Row | Binder | ratio IC50 high HSA/IC50 low HSA
1 | B1 | > 1
2 | B2 | > 1
3 | B3 | > 1
4 | B4 | > 1
5 | B5 | > 1
6 | B6 | > 1
7 | B7 | > 1
8 | B8 | > 1
9 | B9 | > 1
10 | B10 | > 1
11 | B11 | > 1
12 | B12 | > 1
13 | B13 | > 1
14 | B14 | > 1
15 | B15 | > 1
16 | B16 | > 1

Row | Binder | ratio IC50 high HSA/IC50 low HSA
17 | B17 | > 1
18 | B18 | > 1
19 | B19 | > 1
20 | B20 | > 1
21 | B21 | > 1
22 | B22 | > 1
23 | B23 | > 1
24 | B24 | > 1
25 | B25 | > 1
26 | B26 | > 1
27 | B27 | > 1
28 | B28 | > 1
29 | B29 | > 1
30 | B30 | > 1
31 | B31 | > 1

The binders below were run against T1, human GLP-1 receptor (assay: SPA, displacement of 125I-GLP-1(7-36)NH2, 0.005% HSA).

Row | Binder | IC50 [nM]
32 | B1 | < 1000
33 | B2 | < 1000
34 | B3 | < 1000
35 | B4 | < 1000
36 | B5 | < 1000
37 | B6 | < 1000
38 | B7 | < 1000
39 | B8 | < 1000
40 | B9 | < 1000
41 | B10 | < 1000
42 | B11 | < 1000
43 | B12 | < 1000
44 | B13 | < 1000
45 | B14 | < 1000
46 | B15 | < 1000
47 | B16 | < 1000

Row | Binder | IC50 [nM]
48 | B17 | < 1000
49 | B18 | < 1000
50 | B19 | < 1000
51 | B20 | < 1000
52 | B21 | < 1000
53 | B22 | < 1000
54 | B23 | < 1000
55 | B24 | < 1000
56 | B25 | < 1000
57 | B26 | < 1000
58 | B27 | < 1000
59 | B28 | < 1000
60 | B29 | < 1000
61 | B30 | < 1000
62 | B31 | < 1000
